Test results as given in paper PMC10329719 (2023).
Primed or numbered codes have the meaning given here. Where no end group is shown, it is not given here. FITC′ = not defined here

Tests used:
Assay in all cases: ELISA-like fluorescence binding assay
TβR2 = TβR2 (Homo sapiens, UniProt P37173)
TβR1 = biological target: T1, TβR1 (Homo sapiens, UniProt P36897)
T1 chain: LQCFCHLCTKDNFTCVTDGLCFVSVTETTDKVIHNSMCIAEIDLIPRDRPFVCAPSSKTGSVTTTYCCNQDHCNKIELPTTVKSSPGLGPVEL

TβR3 = biological target: T2, TβR3 (Homo sapiens, UniProt Q03167)
T2 chain: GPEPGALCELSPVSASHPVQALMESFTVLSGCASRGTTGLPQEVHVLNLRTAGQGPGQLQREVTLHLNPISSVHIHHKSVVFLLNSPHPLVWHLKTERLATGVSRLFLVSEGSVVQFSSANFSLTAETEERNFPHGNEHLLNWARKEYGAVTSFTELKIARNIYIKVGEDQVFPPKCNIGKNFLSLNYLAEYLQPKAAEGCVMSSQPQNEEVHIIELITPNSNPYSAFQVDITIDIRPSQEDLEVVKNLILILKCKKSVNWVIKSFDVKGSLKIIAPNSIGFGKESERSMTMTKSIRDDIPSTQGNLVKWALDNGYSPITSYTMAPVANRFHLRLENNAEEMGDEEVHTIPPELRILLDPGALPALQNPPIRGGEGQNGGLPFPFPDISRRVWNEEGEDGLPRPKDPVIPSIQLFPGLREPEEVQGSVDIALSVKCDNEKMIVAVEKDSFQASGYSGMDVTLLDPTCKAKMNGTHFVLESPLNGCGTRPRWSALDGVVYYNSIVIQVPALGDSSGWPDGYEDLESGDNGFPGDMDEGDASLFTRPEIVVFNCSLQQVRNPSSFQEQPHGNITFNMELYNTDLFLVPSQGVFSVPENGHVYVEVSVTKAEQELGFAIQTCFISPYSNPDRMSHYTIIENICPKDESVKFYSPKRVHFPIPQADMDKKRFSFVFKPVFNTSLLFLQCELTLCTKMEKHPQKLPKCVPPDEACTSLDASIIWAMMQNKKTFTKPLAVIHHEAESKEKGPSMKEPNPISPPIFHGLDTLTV

TβR2, sequence (P37173 23-166): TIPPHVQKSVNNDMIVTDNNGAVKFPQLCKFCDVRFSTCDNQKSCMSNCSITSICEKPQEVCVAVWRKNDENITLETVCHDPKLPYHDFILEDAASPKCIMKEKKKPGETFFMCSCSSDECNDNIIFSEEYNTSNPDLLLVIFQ

ECGLLPVGRPDRVWRLCK-{FITC′} (cysteine pairing not given here) [PTβR2I]
Kd (TβR2): 3.4 µM
Kd (TβR1): > 34 µM
Kd (TβR3): > 34 µM
